The target in one experiment is VHL_m (Δ91–121) (UniProt P40337).
The target in a further experiment is VHL_WT-EGFP (UniProt P40337).
VHL_WT-EGFP, sequence (P40337 whole entry): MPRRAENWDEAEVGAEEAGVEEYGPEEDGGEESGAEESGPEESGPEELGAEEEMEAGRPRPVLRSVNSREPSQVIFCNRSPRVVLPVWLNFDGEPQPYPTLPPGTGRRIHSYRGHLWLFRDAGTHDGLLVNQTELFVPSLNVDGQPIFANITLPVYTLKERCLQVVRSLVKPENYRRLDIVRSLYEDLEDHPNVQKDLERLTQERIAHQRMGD

VHL_m (Δ91–121), sequence (P40337 other isoform, or with tags, fused parts or gaps mutant): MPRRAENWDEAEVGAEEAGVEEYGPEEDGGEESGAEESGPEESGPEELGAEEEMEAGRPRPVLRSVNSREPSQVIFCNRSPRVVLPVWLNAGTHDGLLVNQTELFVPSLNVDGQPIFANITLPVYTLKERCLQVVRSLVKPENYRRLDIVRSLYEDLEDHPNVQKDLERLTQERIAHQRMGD

B1: USP39-OFP (natural protein)
chain: MSGRSKRESRGSTRGKRESESRGSSGRVKRERDREREPEAASSRGSPVRVKREFEPASAREAPASVVPFVRVKREREVDEDSEPEREVRAKNGRVDSEDRRSRHCPYLDTINRSVLDFDFEKLCSISLSHINAYACLVCGKYFQGRGLKSHAYIHSVQFSHHVFLNLHTLKFYCLPDNYEIIDSSLEDITYVLKPTFTKQQIANLDKQAKLSRAYDGTTYLPGIVGLNNIKANDYANAVLQALSNVPPLRNYFLEEDNYKNIKRPPGDIMFLLVQRFGELMRKLWNPRNFKAHVSPHEMLQAVVLCSKKTFQITKQGDGVDFLSWFLNALHSALGGTKKKKKTIVTDVFQGSMRIFTKKLPHPDLPAEEKEQLLHNDEYQETMVESTFMYLTLDLPTAPLYKDEKEQLIIPQVPLFNILAKFNGITEKEYKTYKENFLKRFQLTKLPPYLIFCIKRFTKNNFFVEKNPTIVNFPITNVDLREYLSEEVQAVHKNTTYDLIANIVHDGKPSEGSYRIHVLHHGTGKWYELQDLQVTDILPQMITLSEAYIQIWKRRDNDETNQQGA
The molecule B1 had a fold reduction of USP39 PROTAC V1-induced degradation of USP39-OFP against cells with VHL WT-EGFP, fluorescence assay in HEK293T cells expressing VHL m with VHL_m (Δ91–121) of over 80 fold. Further, in the experiment with VHL_WT-EGFP, the DC50 of USP39 PROTAC V1-induced degradation of USP39-OFP, fluorescence assay in HEK293T cells co-expressing USP39 OFP and VHL WT-EGFP stood at 1 nM.

The record behind these values is paper PMC12851022, “Targeting the Spliceosomal Protein USP39 Through Allosteric Ligands and PROTAC‐Induced Degradation” (Angewandte Chemie (International Ed. in English), 2025).
